Measurements as given in patent publication US20120058906A1 (published 2012).

Tests used:
[1] = molecular target: T1, rHuman Notch-1/Fc Chimera, CF (R&D Systems Cat#3647-TK) (human, UniProt P46531 19-526); assay: ECL (MSD Multi-Spot) binding, antigen spotted on plate; Fab 500 nM
T1 construct: Bought Fc chimera; Fc part of the bought chimera not given

[2] = molecular target: T2, rHuman EGF R/Fc Chimera, CF (R&D Systems Cat#344-ER) (human, UniProt P00533 25-645); assay: as above
T2 construct: Bought Fc chimera; also called epidermal growth factor receptor; Fc part of the bought chimera not given

[3] = molecular target: T3, rHuman P-Cadherin/Fc Chimera, CF (R&D Systems Cat#861-PC) (human, UniProt P22223 108-654); assay: ECL (MSD multi-spot), antigen spotted on plate; Fab 705 nM; blank spot 483
T3 construct: Bought reagent; also called CDH3; Fc part of the bought chimera not given

[4] = molecular target: T4, rHuman Notch-1/Fc Chimera, CF (R&D Systems Cat#3647-TK) (human, UniProt P46531 19-526); assay: as above
T4 construct: Bought reagent; Fc part of the bought chimera not given

[5] = molecular target: T5, rHuman EGF R/Fc Chimera, CF (R&D Systems Cat#344-ER) (human, UniProt P00533 25-645); assay: as above
T5 construct: Bought reagent; also called epidermal growth factor receptor; Fc part of the bought chimera not given

[6] = molecular target: T6, rHuman Erythropoietin R/Fc Chimera, CF (R&D Systems Cat#963-ER) (human, UniProt P19235 25-250); assay: as above
T6 construct: Bought reagent; also called EPO R/Fc; Epo R; Fc part of the bought chimera not given
T6 sequence: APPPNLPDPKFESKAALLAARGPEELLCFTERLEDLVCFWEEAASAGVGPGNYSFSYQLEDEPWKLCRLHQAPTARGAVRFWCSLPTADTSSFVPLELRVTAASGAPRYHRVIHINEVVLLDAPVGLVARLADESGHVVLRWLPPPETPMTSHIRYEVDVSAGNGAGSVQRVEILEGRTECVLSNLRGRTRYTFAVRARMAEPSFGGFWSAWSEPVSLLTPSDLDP

[7] = molecular target: T7, Recombinant Human DLL4 (R&D Systems Cat#1506-D4/CF) (human, UniProt Q9NR61 27-524); assay: as above
T7 construct: Bought reagent; also called delta-like protein 4

[8] = molecular target: T8, rHuman CD44/Fc Chimera, CF (R&D Systems Cat#3660-CD) (human, UniProt P16070 21-220); assay: as above
T8 construct: Bought reagent; Fc part of the bought chimera not given

[9] = molecular target: T9, rHuman HGF R/c-MET/Fc Chimera, CF (R&D Systems Cat#358-MT/CF) (human, UniProt P08581 25-932); assay: as above
T9 construct: Bought reagent; also called HGF R/Fc; hepatocyte growth factor receptor; Fc part of the bought chimera not given

[10] = molecular target: T10, rHuman IGF-1 sR (IGF-1 sR), CF (R&D Systems Cat#391-GR) (human, UniProt P08069 31-932); assay: as above
T10 construct: Bought soluble receptor; also called insulin-like growth factor-1 soluble receptor; IGF-R1

[11] = molecular target: T11, rHuman ErbB2/Fc Chimera, CF (R&D Systems Cat#1129-ER) (human, UniProt P04626 23-652); assay: as above
T11 construct: Bought reagent; also called HER2/neu; human epidermal growth factor 2 receptor; Fc part of the bought chimera not given
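Also: blank spot per well as comparator with Hit at signal to blank ratio of 4 or more.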

B1: Fab VH1-46_IGHD6-6*01_IGHJ1*01_S102A_S103P_S104F_H111Y & L6_IGKJ1*01 (Fab, V domains shown)
VH: QVQLVQSGAEVKKPGASVKVSCKASGYTFTSYYMHWVRQAPGQGLEWMGIINPSGGSTSYAQKFQGRVTMTRDTSTSTVYMELSSLRSEDTAVYYCAREEYAPFSAEYFQYWGQGTLVTVSS
VL: not shown
notes: Fab made in E. coli; The heavy chain also carries the CH1 with Flag and His tags of Plasmid A, and the light chain the kappa constant region of Plasmid C
[1]
  ECL signal: 644
[2]
  ECL signal: 898

B2: Fab VH1-46_IGHD3-10*01_IGHJ4*01 & B3_IGKJ1*01 (Fab, V domains shown)
VH: QVQLVQSGAEVKKPGASVKVSCKASGYTFTSYYMHWVRQAPGQGLEWMGIINPSGGSTSYAQKFQGRVTMTRDTSTSTVYMELSSLRSEDTAVYYCAREYYYGSGSYYNDYFDYWGQGTLVTVSS
VL: not shown
notes: also called IGHV1-46*01
[3]
  ECL signal: 827
[4]
  ECL signal: 958
[5]
  ECL signal: 692
[6]
  ECL signal: 4890
[7]
  ECL signal: 981
[8]
  ECL signal: 693
[9]
  ECL signal: 839
[10]
  ECL signal: 630
[11]
  ECL signal: 671
